Experimental data as given in patent US20260250378A1 (AGENCY FOR SCIENCE TECHNOLOGY AND RESEARCH, published 2026).
Values joined by “and” are separate entries in the source; they are usually repeats but may differ in a detail not shown here. Equal entries are not always repeated.

T1: MsCANX_His (mouse, UniProt P35564)
T1 construct: recombinant, C-terminal polyhistidine tag; also called recombinant mouse CANX protein with a polyhistidine tag at the C-terminus
T1 sequence (antigen, looked up): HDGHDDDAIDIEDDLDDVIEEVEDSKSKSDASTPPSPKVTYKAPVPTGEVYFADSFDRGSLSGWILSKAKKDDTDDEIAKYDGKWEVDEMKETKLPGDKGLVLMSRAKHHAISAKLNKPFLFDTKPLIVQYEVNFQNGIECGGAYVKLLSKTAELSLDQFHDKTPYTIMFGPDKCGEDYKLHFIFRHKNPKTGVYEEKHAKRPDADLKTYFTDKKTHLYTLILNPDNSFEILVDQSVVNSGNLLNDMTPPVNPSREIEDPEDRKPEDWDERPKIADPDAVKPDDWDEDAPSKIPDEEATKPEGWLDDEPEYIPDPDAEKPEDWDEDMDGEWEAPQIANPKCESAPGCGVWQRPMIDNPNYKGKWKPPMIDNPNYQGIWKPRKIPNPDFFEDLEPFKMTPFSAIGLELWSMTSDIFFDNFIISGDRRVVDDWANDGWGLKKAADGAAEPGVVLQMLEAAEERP

T2: CRT in cell extracts (HeLa; MDA-231) (human, UniProt P27797 18-417)
T2 construct: Denatured endogenous protein in western blots; also called calreticulin
T2 sequence (looked up): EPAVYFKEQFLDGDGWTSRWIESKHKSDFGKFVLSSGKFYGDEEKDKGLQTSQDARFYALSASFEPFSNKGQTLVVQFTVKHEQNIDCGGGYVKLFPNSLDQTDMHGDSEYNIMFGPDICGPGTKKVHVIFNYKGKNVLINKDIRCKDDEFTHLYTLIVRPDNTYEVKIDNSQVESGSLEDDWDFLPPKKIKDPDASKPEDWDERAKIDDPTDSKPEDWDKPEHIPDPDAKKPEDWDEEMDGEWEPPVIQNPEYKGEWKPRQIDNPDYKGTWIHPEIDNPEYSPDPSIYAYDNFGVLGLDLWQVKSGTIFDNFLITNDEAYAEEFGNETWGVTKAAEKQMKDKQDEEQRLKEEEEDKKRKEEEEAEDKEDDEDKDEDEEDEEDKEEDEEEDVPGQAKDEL

T3: CNX-his antigen (Genscript) (human, UniProt P27824 21-481, limits assumed)
T3 construct: also called human CNX-His; recombinant CNX-histidine tag
T3 sequence (looked up): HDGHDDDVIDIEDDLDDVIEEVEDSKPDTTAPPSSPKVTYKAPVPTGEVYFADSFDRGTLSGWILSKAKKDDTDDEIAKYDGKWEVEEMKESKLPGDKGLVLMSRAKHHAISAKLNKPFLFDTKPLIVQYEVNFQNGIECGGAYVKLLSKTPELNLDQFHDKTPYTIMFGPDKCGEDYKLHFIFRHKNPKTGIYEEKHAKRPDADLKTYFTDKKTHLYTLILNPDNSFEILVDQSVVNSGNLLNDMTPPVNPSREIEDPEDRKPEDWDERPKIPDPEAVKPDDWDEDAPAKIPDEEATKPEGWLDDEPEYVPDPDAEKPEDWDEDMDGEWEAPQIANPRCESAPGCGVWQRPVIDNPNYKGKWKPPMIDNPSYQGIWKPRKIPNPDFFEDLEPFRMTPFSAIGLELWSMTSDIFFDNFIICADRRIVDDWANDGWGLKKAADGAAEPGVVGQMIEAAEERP

T4: Recombinant human CANX protein fused with the Fc region of human IgG1 at the C-terminus (HuCANX_hFc) (human, UniProt P27824 21-481, limits assumed, biotinylated in the ELISAs)
T4 construct: also called biotinylated HuCANX with a human Fc tag; not shown: Fc region of human IgG1 at the C-terminus
T4 sequence (looked up): T3 sequence (looked up)

T5: recombinant human CNX protein with a polyhistidine tag at the C-terminus (HuCANX_His) (human, UniProt P27824 21-481, limits assumed)
T5 construct: also called HuCANX with a His tag
T5 sequence (looked up): T3 sequence (looked up)

B1: 5E8 IgG1 (antibody)
heavy: not shown
light: DIQLTQSPSSLSASVGDRVTITCRASQSISTYINWYQQKPGKAPKLLIYFASSLQSGVPSRFSGGGSGTDFTLTISSLQPEDFATYYCQQSYNIPVTFGQGTKVEVTRTVAAPSIFIFPPSDEQLKSGTASVVCLLNNFYPREAKVQWKVDNALQSGNSQESVTEQDSKDSTYSLSSTLTLSKADYEKHKVYACEVTHQGLSSPVTKSFNRGEC
B2: C008 IgG1 (antibody, V domains shown)
VH: QVQLVQSGGGVVQPGRSLRLSCAASGFTVSSNYMSWVRQAPGKGLEWVSVIYSGGSTYYADSVKGRFTISRDNSKNTLYLQMNSLRAEDTAVYYCARGSRAVAGAFDYWGQGTLVTVSS
VL: YSELTQDPAVSVALGQTVRITCQGDSLRTYYANWYQQKPGQAPVLVMYAKNHRPSGIPDRFSGSSSGNTASLTITGAQAEDEADYYCGSRDSSGNHPVFGGGTKVTVLG
notes: scFv clone 8 converted to human IgG1 (pFUSEss-CHIg-hG1 and pFUSE2ss-CLIg-hl2); also called IgG1 clone 8; Igg clone 8
B3: monoclonal anti-CNX antibody clone 2G9 (antibody, V domains shown)
VH: QVTLKESGGGVVQPGRSLRLSCAASGFTFSSYGMHWVRQAPGKGLEWVAVISYDGSNKYYADSVKGRFTISRDNSKNTLYLQMNSLRAEDTAVYYCTQGRDYWGQGTLVTVSS
VL: QAVLTQPSSLSASPGASASLTCTLRSGINVGTYRIYWYQQKPGSPPQYLLRYKSDSDKQQGSGVPSRFSGSKDASANAGILLISGLQSEDEADYYCMIWHSSAWVFGGGTKLTVL
notes: also called 2GP

Columns and labels:
[1] = molecular target: T1, MsCANX_His; experiment: BLI, IgG1 on AHC biosensor, MsCANX_His 200-0.39 nM
Description: The binding affinity of the 15 antibody clones to recombinant mouse CANX protein with a polyhistidine tag at the C-terminus (MsCANX_His) was measured by Bio-Layer Interferometry. The 15 antibody clones were loaded and captured by the anti-human IgG Fc capture (AHC) biosensors (FIG. 6). The biosensors were dipped into a range of MsCANX_His protein concentrations (from 200 nM to 0.39 nM, in 2-fold dilutions), the kinetics of the association and dissociation were then recorded.

[2] = molecular target: T2, CRT in cell extracts (HeLa; MDA-231); experiment: immunoblot of HeLa extracts (WT, CNX KD, CRT KD), anti-human HRP
Description: All Fabs converted to IgG1 were tested for western blotting detection using Hela extract from cells untreated or subjected to 72H knock down with an siRNA against CNX or CRT (CRT). After SDS-PAGE and transfer to nitrocellulose membranes, membranes were blocked with BSA and incubated with 1 μg/ml antibody solution overnight, following multiple washes, an anti-human HRP secondary antibody was used for detection of tested antibodies.

[3] = molecular target: T6, CNX-mcherry fluorescent protein expressed in Huh7 cells; experiment: immunofluorescence, Huh7 CNX-mcherry cells minus plain Huh7 cells, anti-human Alexa 647
T6 construct: Target of immunofluorescence staining inside transfected Huh7 cells
Source text: A secondary anti-human antibody conjugated to Alexa fluorophore 647 was used. […] The signal obtained from normal Huh7 without CNX mCherry was used to normalize the signal obtained with Huh7 CNX-mcherry. […] Thus, these specific antibodies could detect CNX overexpression in CNX mCherry cells in immunofluorescence application settings.

[4] = molecular target: T3, CNX-his antigen (Genscript); experiment: ELISA, CNX-his coated, antibody titrated, HRP secondary, 4-parameter fit; printed in grey: Curve did not plateau in ELISA
Description: (§1) CNX-his antigen (Genscript) was diluted in bicarbonate/carbonate antigen coating buffer (100 mM NaHCO₃) and coated on maxisorp microplates shaking overnight at 4 C. […] The wells were washed 3 times with PBST before the addition of antibodies at several indicated dilution in 2% BSA-PBST and incubated for 1 hour at 37 C. The wells were washed 3 times with PBST. The specific anti-human secondary antibody conjugated with horseradish peroxidase was diluted and added to wells with a subsequent incubation for 1 hour at 37° C. Then wells were washed 3 times with PBST. Addition of TMB solution was performed and incubated at room temperature for 30 mins or until desired color change was attained. Addition of 0.1 M HCL to stop reaction was then added and measurement of absorbance at 450 nm on a microplate reader was then followed. […] CNX ab10286 (abcam) and a human Igg1 unrelated were used as positive and negative control respectively. 4 parameters logistic curve fit were used to calculate EC50.

[5] = molecular target: T4, Recombinant human CANX protein fused …; experiment: ELISA, IgG1 coated 2 ug/ml, biotinylated antigen titrated (EC50 is of the antigen), streptavidin-HRP
Description: The 15 antibody clones were tested using ELISA against biotinylated recombinant HuCANX_hFc protein to assess binding avidity for the target, with an irrelevant IgG1 used as a negative control antibody. In brief, the 15 antibody clones were coated at 2 μg/ml onto the 96-well ELISA plates overnight at 4° C. After blocking with casein for 2 hours, the biotinylated antigen was added at different concentrations (3 times serial dilutions) and incubated for 1 hour. The wells were then washed with PBST and detected by HRP conjugated streptavidin. […] antibody clones were also tested in ELISA against recombinant HuCANX_His protein to assess binding affinity for the target, with an irrelevant IgG1 used as a negative control antibody. In brief, the 15 antibody clones were coated at 10 nM onto the 96-well ELISA plates overnight at 4° C. After blocking with casein for 2 hours, the antigen was added at different concentrations (3 times serial dilutions) and incubated for 1 hour. The wells were then washed with PBST and detected by HRP conjugated anti-His tag antibody.

[6] = molecular target: T5, recombinant human CNX protein with a …; experiment: BLI, IgG1 on AHC biosensor, HuCANX_His 200-3.13 nM
Description: The 5 antibody clones were loaded and captured by the anti-human IgG Fc capture (AHC) biosensors. The biosensors were dipped into a range of HuCANX_His protein concentrations (from 200 nM to 3.13 nM, in 2-fold dilutions), the kinetics of the association and dissociation were then recorded.

[7] = molecular target: T2, CRT in cell extracts (HeLa; MDA-231); experiment: western blot, extracts of MDA-231 and MDA-231 CNX-/- cells
[8] = molecular target: T3, CNX-his antigen (Genscript); experiment: ELISA, CNX-his coated, antibody titrated, anti-human-HRP
[9] = molecular target: T3, CNX-his antigen (Genscript); experiment: ELISA, CNX-his coated, antibody titrated, HRP secondary, 4-parameter fit
Description: as §1

[10] = molecular target: T3, CNX-his antigen (Genscript); experiment: ELISA with serial dilutions of the antibody on coated His-tagged human CNX
[11] = molecular target: T3, CNX-his antigen (Genscript); experiment: ELISA, His-tagged human CNX coated, serial dilutions of antibody
[12] = molecular target: T7, BSA (UniProt P02769 25-607); experiment: ELISA, BSA-coated control wells
T7 construct: Control coating in ELISAs; also called bovine serum albumin
T7 sequence (P02769 25-607 limits assumed): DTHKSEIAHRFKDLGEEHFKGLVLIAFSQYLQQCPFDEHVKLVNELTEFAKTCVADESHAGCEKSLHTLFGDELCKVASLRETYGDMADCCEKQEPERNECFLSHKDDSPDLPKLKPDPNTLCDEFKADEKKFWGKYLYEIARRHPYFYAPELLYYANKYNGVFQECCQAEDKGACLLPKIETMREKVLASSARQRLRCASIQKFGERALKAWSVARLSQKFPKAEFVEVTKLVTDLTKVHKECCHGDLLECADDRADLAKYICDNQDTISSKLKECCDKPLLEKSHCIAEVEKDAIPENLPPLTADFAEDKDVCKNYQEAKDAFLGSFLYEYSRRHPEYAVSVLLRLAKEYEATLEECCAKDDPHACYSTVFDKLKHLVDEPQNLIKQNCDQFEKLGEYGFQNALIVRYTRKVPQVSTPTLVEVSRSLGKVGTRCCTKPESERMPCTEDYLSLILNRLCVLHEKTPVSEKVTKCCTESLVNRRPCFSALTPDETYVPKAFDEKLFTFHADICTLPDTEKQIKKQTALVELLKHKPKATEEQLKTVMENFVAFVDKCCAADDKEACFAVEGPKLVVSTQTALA

T6 sequence (P27824 whole entry): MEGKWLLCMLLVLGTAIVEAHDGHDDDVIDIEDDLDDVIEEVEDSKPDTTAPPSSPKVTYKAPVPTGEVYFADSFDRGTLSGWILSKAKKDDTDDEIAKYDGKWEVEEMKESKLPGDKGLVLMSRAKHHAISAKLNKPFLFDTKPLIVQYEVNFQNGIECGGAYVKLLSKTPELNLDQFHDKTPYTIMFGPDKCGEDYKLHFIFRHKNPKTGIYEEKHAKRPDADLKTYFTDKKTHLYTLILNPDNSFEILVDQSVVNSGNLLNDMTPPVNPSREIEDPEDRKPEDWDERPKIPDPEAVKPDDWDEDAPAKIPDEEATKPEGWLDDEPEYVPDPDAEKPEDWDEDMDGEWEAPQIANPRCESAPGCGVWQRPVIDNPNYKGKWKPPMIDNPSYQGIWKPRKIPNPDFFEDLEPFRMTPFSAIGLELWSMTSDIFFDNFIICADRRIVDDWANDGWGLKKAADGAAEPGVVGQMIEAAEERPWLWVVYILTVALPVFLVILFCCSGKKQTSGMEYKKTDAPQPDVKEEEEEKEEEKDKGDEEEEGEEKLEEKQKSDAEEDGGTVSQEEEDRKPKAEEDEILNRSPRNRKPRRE

| Binder | Kd [1] | koff [1] | kon [1] | binding result [2] | Intensity (CNX+ cells - CNX -ve) [3] | EC50 [4] | EC50 [5] | Kd [6] | koff [6] | kon [6] | binding result [7] | EC50 [8] | EC50 [9] | EC50 (read off the curve) [10] | EC50 [11] | binding result [12] |
| --- | --- | --- | --- | --- | --- | --- | --- | --- | --- | --- | --- | --- | --- | --- | --- | --- |
| B1 | 5.8 nM | 0.00111 s⁻¹ | 192000 M⁻¹ s⁻¹ | no binding (tested: 1 ug/ml) | 945 | 8490 ng/mL | 2.14 nM | – | – | – | – | – | – | – | – | – |
| B2 | – | – | – | – | 3140 | – | – | 5.56 nM | 0.000225 s⁻¹ | 40400 M⁻¹ s⁻¹ | binds | > 0.1 nM | 0.0643 µg/mL and 0.43 nM | – | – | – |
| B3 | – | – | – | – | – | – | – | – | – | – | – | – | – | ~3 ng/mL | ~0.0031 ng/mL | no binding (tested: 10 ug/ml (concentration from the text)) |
